Changes are numbered by the printed parent chain. Numbers in names are those of the source.
B1: sNlpI (soluble NlpI without its lipoprotein signal peptide) (natural protein, E. coli, UniProt P0AFB1 20-294, looked up)
chain: SNTSWRKSEVLAVPLQPTLQQEVILARMEQILASRALTDDERAQLLYERGVLYDSLGLRALARNDFSQALAIRPDMPEVFNYLGIYLTQAGNFDAAYEAFDSVLELDPTYNYAHLNRGIALYYGGRDKLAQDDLLAFYQDDPNDPFRSLWLYLAEQKLDEKQAKEVLKQHFEKSDKEQWGWNIVEFYLGNISEQTLMERLKADATDNTSLAEHLSETNFYLGKYYLSLGDLDSATALFKLAVANNVHNFVEHRYALLELSLLGQDQDDLAESDQQ
notes: NlpI, E. coli outer-membrane lipoprotein with four tetratricopeptide repeats, residues S20-Q294, without the lipoprotein signal peptide; Homodimer by AUC and in the crystal. pET28a vector with N-terminal His-tag; no removal of the tag is described; also called WT-NlpI; wild-type sNlpI; source: E. coli BL21(DE3), purified (Ni-NTA, MonoQ, Superdex 200); cleared cell lysate in the pull-down; not …
B2: sNlpI-R82E (natural protein, E. coli, UniProt P0AFB1 20-294, looked up)
chain: B1 chain with R63E
notes: NlpI, E. coli, residues S20-Q294 without the signal peptide, R82E in helix TPR1b; source: E. coli BL21(DE3), purified (Ni-NTA, MonoQ, Superdex 200)
B3: sNlpI-L38A (natural protein, E. coli, UniProt P0AFB1 20-294, looked up)
chain: B1 chain with L19A
notes: NlpI, E. coli, residues S20-Q294 without the signal peptide, L38A in helix h1; source: E. coli BL21(DE3), purified (Ni-NTA, MonoQ, Superdex 200)
B4: sNlpI-L38C (natural protein, E. coli, UniProt P0AFB1 20-294, looked up)
chain: B1 chain with L19C
notes: NlpI, E. coli, residues S20-Q294 without the signal peptide, L38C in helix h1; source: E. coli BL21(DE3), purified (Ni-NTA, MonoQ, Superdex 200)

Target: the molecule itself
Test: AUC; sedimentation velocity, absorbance optics, 20 mM Tris-HCl pH 8.0, 100 mM NaCl, 2 mM DTT, 20 °C, c(s) model in Sedfit

Protein	stoichiometry N
B1	2
B2	2
B3	2
B4	2

Source: PMC5686067, “Structural basis of adaptor-mediated protein degradation by the tail-specific PDZ-protease Prc” (Nature Communications, 2017)
